Experimental data published in the RNAGym collection of RNA variant scans (doi:10.7554/elife.80360).

B1: HDV Ribozyme (parent)
chain: GGCCGGCAUGGUCCCAGCCUCCUCGCUGGCGCCGGCUGGGCAACAUUCCGAGGGGACCGUCCCCUCGGUAAUGGCGAAUGGGACCCA

Variants of: B1
Assay: self-cleavage, relative activity (ratio to wild type); higher = more cleavage; co-transcriptional

| Variant | self-cleavage |
| --- | --- |
| G55A G73U | 0.457 |
| G55A G73C | 0.658 |
| A56C C61A | 1.13 |
| G54C G74C | 0.198 |
| G54C G74A | 0.314 |
| G55A G80U | 0.13 |
| A56G G59C | 1.3 |
| G55U C84A | 0.886 |
| G55U A70G | 0.867 |
| G55U A70C | 0.997 |
| G54U G73A | 0.776 |
| A56C G59C | 1.05 |
| G55C G82C | 0.277 |
| G55C G82U | 0.277 |
| G55U C63A | 0.783 |
| A56C G81C | 0.266 |
| A56C G81A | 0.415 |
| G55U C61A | 1.09 |
| G55C C57G | 1.14 |
| G55C U72G | 0.449 |
| G55C U72A | 0.743 |

| Variant | self-cleavage |
| --- | --- |
| A56G G68C | 1.01 |
| G55C G68A | 0.967 |
| G55A U79A | 0.582 |
| G55A U79G | 0.85 |
| G55C C62G | 1.06 |
| G55C C66G | 1.2 |
| G55C C66U | 0.983 |
| G55U A56C | 0.944 |
| A56G G67U | 0.997 |
| G55C U60A | 1.05 |
| G55C U60G | 0.898 |
| A56G C57G | 0.8 |
| A56G C57A | 0.847 |
| G55U A87C | 1.01 |
| G55U A87G | 0.984 |
| G55C G59C | 0.867 |
| G54U C64A | 0.486 |
| G54U C64U | 0.905 |
| G54C U60C | 1.22 |
| G54C U60A | 1.08 |
| G55A C62G | 0.686 |

| Variant | self-cleavage |
| --- | --- |
| G54U C85U | 1.02 |
| G54U C85A | 0.964 |
| A56C G67A | 1.05 |
| G55C C61G | 0.959 |
| G54C G73U | 0.205 |
| A56C U60C | 0.98 |
| A56C G68C | 0.486 |
| G55U A71C | 0.725 |
| G55C C58G | 1.11 |
| G55U G73A | 0.533 |
| G55U G59C | 1.02 |
| G55U U60C | 1.11 |
| G55U U60G | 1.12 |
| G54C U79C | 0.482 |
| A56G C66G | 1.01 |
| G55A G76A | 1 |
| G55A G76U | 0.918 |
| G55A G76C | 1.09 |
| G55C U65A | 0.88 |
| G55C U65C | 0.867 |
| A56C G74C | 0.312 |

| Variant | self-cleavage |
| --- | --- |
| G55U A77C | 0.353 |
| G54U G74C | 0.182 |
| A56G C63A | 0.831 |
| G55U G81C | 0.106 |
| G55U G81U | 0.272 |
| G54U C58A | 1.07 |
| G54U C58G | 0.997 |
| G55A G74A | 0.457 |
| G55A C75G | 0.136 |
| G55A C75U | 0.208 |
| G55C G76U | 1.06 |
| G55C G76A | 1.18 |
| G55A A83G | 0.919 |
| G54C G76C | 0.981 |
| G54C G76U | 1.11 |
| G55U U79G | 0.591 |
| A56C U72G | 0.383 |
| G54U | 0.98 |
| G55A C66G | 0.843 |
| G55A C64A | 0.95 |
